Measured values as given in doi:10.1101/2023.03.09.531992.

Experiments:
[1] = target: clientized GST-S tail construct Thr1273Asp (SARS-CoV-2 S, Leu1244 to Thr1273) (SARS-CoV-2) (UniProt P0DTC2); experiment: pull-down
[2] = target: clientized GST-S tail construct Thr1273Glu (SARS-CoV-2 S, Leu1244 to Thr1273) (SARS-CoV-2) (UniProt P0DTC2); experiment: pull-down

endogenous coatomer complex (COPI), mouse liver cytosol, Q8CIE6;Q9JIF7;O55029;Q9QZE5;Q5XJY5;O89079;P61924
fold binding against the Lys-x-Lys-x-xCT dibasic mutant [1]: 2 fold | fold higher affinity than the wild-type GST-S tail construct [1]: 17 fold | fold binding against the Lys-x-Lys-x-xCT dibasic mutant [2]: 2 fold | fold higher affinity than the wild-type GST-S tail construct [2]: 17 fold
